Assays:
HeLa Kyoto [1] = test: solubility change mitosis vs G1/S (difference of NP-40 vs SDS log2 ratios) (log2 ratio difference); higher = more soluble in mitosis
HeLa Kyoto [2] = test: solubility in G1/S (NP-40 vs SDS abundance) (log2 ratio); higher = more soluble; conditions: cell cycle stage: G1/S
HeLa Kyoto [3] = test: thermal stability score vs G1/S (z-score of summed log2 fold changes over temperatures); higher = more thermally stable than in G1/S
HeLa Kyoto [4] = test: melting temperature (median over replicates), in situ; higher = more thermally stable
[5] = cell cycle stage: early G1 (4.5 h after nocodazole release)
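For melting temperature (median over replicates), in situ in this document: HeLa Kyoto cells synchronized by double thymidine or nocodazole block, proteins quantified by TMT10plex mass spectrometry, three independent biological replicates.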
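For solubility change mitosis vs G1/S (difference of NP-40 vs SDS log2 ratios) in this document: synchronized HeLa Kyoto cells (double thymidine block for G1/S, nocodazole release for mitosis), protein amounts in NP-40 versus SDS lysates quantified by mass spectrometry, three biological replicates.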
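For solubility in G1/S (NP-40 vs SDS abundance) in this document: HeLa Kyoto cells arrested at G1/S by double thymidine block, proteins quantified by TMT10plex mass spectrometry in mild NP-40 versus SDS extracts, three biological replicates.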
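For thermal stability score vs G1/S (z-score of summed log2 fold changes over temperatures) in this document: synchronized HeLa Kyoto cells, proteins quantified by TMT10plex mass spectrometry, three biological replicates, mitosis taken 0.5 h after nocodazole release, G1/S directly after double thymidine block.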

Sequence	solubility change mitosis (log2) (HeLa Kyoto [1])	solubility in G1/S (log2) (HeLa Kyoto [2])	thermal stability score (HeLa Kyoto [3]; [5])	thermal stability score (HeLa Kyoto [3]; cell cycle stage: mitosis)	melting temperature (HeLa Kyoto [4]; cell cycle stage: G1/S)	melting temperature (HeLa Kyoto [4]; cell cycle stage: mitosis)
MERASERRTASALFAGFRALGLFSNDIPHVVRFSALKRRFYVTTCVGKSFHTYDVQKLSLVAVSNSVPQDICCMAADGRLVFAAYGNVFSAFARNKEIVHTFKGHKAEIHFLQPFGDHIISVDTDGILIIWHIYSEEEYLQLTFDKSVFKISAILHPSTYLNKILLGSEQGSLQLWNVKSNKLLYTFPGWKVGVTALQQAPAVDVVAIGLMSGQVIIHNIKFNETLMKFRQDWGPITSISFRTDGHPVMAAGSPCGHIGLWDLEDKKLINQMRNAHSTAIAGLTFLHREPLLVTNGADNALRIWIFDGPTGEGRLLRFRMGHSAPLTNIRYYGQNGQQILSASQDGTLQSFSTVHEKFNKSLGHGLINKKRVKRKGLQNTMSVRLPPITKFAAEEARESDWDGIIACHQGKLSCSTWNYQKSTIGAYFLKPKELKKDDITATAVDITSCGNFAVIGLSSGTVDVYNMQSGIHRGSFGKDQAHKGSVRGVAVDGLNQLTVTTGSEGLLKFWNFKNKILIHSVSLSSSPNIMLLHRDSGILGLALDDFSISVLDIETRKIVREFSGHQGQINDMAFSPDGRWLISAAMDCSIRTWDLPSGCLIDCFLLDSAPLNVSMSPTGDFLATSHVDHLGIYLWSNISLYSVVSLRPLPADYVPSIVMLPGTCQTQDVEVSEETVEPSDELIEYDSPEQLNEQLVTLSLLPESRWKNLLNLDVIKKKNKPKEPPKVPKSAPFFIPTIPGLVPRYAAPEQNNDPQQSKVVNLGVLAQKSDFCLKLEEGLVNNKYDTALNLLKESGPSGIETELRSLSPDCGGSIEVMQSFLKMIGMMLDRKRDFELAQAYLALFLKLHLKMLPSEPVLLEEITNLSSQVEENWTHLQSLFNQSMCILNYLKSALL [WDR36]	0.613	-1.46	0.383	0.754	50.5 °C	50.8 °C
MALLRGVFVVAAKRTPFGAYGGLLKDFTATDLSEFAAKAALSAGKVSPETVDSVIMGNVLQSSSDAIYLARHVGLRVGIPKETPALTINRLCGSGFQSIVNGCQEICVKEAEVVLCGGTESMSQAPYCVRNVRFGTKLGSDIKLEDSLWVSLTDQHVQLPMAMTAENLAVKHKISREECDKYALQSQQRWKAANDAGYFNDEMAPIEVKTKKGKQTMQVDEHARPQTTLEQLQKLPPVFKKDGTVTAGNASGVADGAGAVIIASEDAVKKHNFTPLARIVGYFVSGCDPSIMGIGPVPAISGALKKAGLSLKDMDLVEVNEAFAPQYLAVERSLDLDISKTNVNGGAIALGHPLGGSGSRITAHLVHELRRRGGKYAVGSACIGGGQGIAVIIQSTA [ACAA2]	-0.0842	0.213	-3.39	-4.11	59.3 °C	59.2 °C
MVLIKEFRVVLPCSVQEYQVGQLYSVAEASKNETGGGEGIEVLKNEPYEKDGEKGQYTHKIYHLKSKVPAFVRMIAPEGSLVFHEKAWNAYPYCRTIVTNEYMKDDFFIKIETWHKPDLGTLENVHGLDPNTWKTVEIVHIDIADRSQVEPADYKADEDPALFQSVKTKRGPLGPNWKKELANSPDCPQMCAYKLVTIKFKWWGLQSKVENFIQKQEKRIFTNFHRQLFCWIDKWIDLTMEDIRRMEDETQKELETMRKRGSVRGTSAADV [PITPNB]	-0.0681	0.199	2.34	2.14	52.9 °C	53.4 °C
MTDLVAVWDVALSDGVHKIEFEHGTTSGKRVVYVDGKEEIRKEWMFKLVGKETFYVGAAKTKATINIDAISGFAYEYTLEINGKSLKKYMEDRSKTTNTWVLHMDGENFRIVLEKDAMDVWCNGKKLETAGEFVDDGTETHFSIGNHDCYIKAVSSGKRKEGIIHTLIVDNREIPEIAS [FAIM]	-0.25	-0.00968	0.651	1.16	50.8 °C	49.1 °C
MPHIDNDVKLDFKDVLLRPKRSTLKSRSEVDLTRSFSFRNSKQTYSGVPIIAANMDTVGTFEMAKVLCKFSLFTAVHKHYSLVQWQEFAGQNPDCLEHLAASSGTGSSDFEQLEQILEAIPQVKYICLDVANGYSEHFVEFVKDVRKRFPQHTIMAGNVVTGEMVEELILSGADIIKVGIGPGSVCTTRKKTGVGYPQLSAVMECADAAHGLKGHIISDGGCSCPGDVAKAFGAGADFVMLGGMLAGHSESGGELIERDGKKYKLFYGMSSEMAMKKYAGGVAEYRASEGKTVEVPFKGDVEHTIRDILGGIRSTCTYVGAAKLKELSRRTTFIRVTQQVNPIFSEAC [GMPR2]	-0.137	0.0286	-0.68	-2.3	56.3 °C	59.4 °C
MDGIVTEVAVGVKRGSDELLSGSVLSSPNSNMSSMVVTANGNDSKKFKGEDKMDGAPSRVLHIRKLPGEVTETEVIALGLPFGKVTNILMLKGKNQAFLELATEEAAITMVNYYSAVTPHLRNQPIYIQYSNHKELKTDNTLNQRAQAVLQAVTAVQTANTPLSGTTVSESAVTPAQSPVLRIIIDNMYYPVTLDVLHQIFSKFGAVLKIITFTKNNQFQALLQYGDPVNAQQAKLALDGQNIYNACCTLRIDFSKLVNLNVKYNNDKSRDYTRPDLPSGDGQPALDPAIAAAFAKETSLLAVPGALSPLAIPNAAAAAAAAAAGRVGMPGVSAGGNTVLLVSNLNEEMVTPQSLFTLFGVYGDVQRVKILYNKKDSALIQMADGNQSQLAMNHLNGQKMYGKIIRVTLSKHQTVQLPREGLDDQGLTKDFGNSPLHRFKKPGSKNFQNIFPPSATLHLSNIPPSVAEEDLRTLFANTGGTVKAFKFFQDHKMALLQMATVEEAIQALIDLHNYNLGENHHLRVSFSKSTI [PTBP2]	-0.0237	0.308	0.234	0.47	48.8 °C	49 °C

From the supplement of paper PMC5998384
